{"source": "patent US20260250737A1", "about": "“Engineered Luciferases and Luciferin Substrates” (Monod Bio, Inc., priority 2023, published 2026)", "key": {"[1]": {"test": "Luciferase activity (brightness) of LuxSit-i variants", "type": "biochemical"}, "[2]": {"test": "Luciferase activity (brightness) of LuxSit-i variants", "type": "biochemical", "conditions": "relative to LuxSit-i", "procedure": "SSM was performed to evaluate the effect of single mutations on the luciferase activity of LuxSit-i. FIG. 3 graphically presents the mutation frequency at the positions found in the SSM as beneficial for increasing luciferase activity.\nFIG. 4A provides data for luciferase activity for MBIO-148, MBIO-158 and Luxsit-i. MBIO-148, MBIO-158, and Luxsit-i were serially diluted starting from a final in-well concentration of 10,000 pM. Each dilution was combined with Diphenylterazine (DTZ) to a final in-well concentration of […]. Points shown are from the initial reading once the plate read was started.\nFIG. 4B provides data for luciferase activity for MBIO-148, MBIO-301, MBIO-302, and LuxSit-i. MBIO-148, MBIO-301, MBIO-302, and Luxsit-i were serially diluted starting from a final in-well concentration of 500 pM. Each dilution was combined with DTZ to a final in-well concentration of 10 μM. Points shown are from the initial reading once the plate read was started."}, "[3]": {"test": "Stability of LuxSit-i variants (yeast display protease resistance, static light scattering)", "type": "physicochemical", "conditions": "relative to LuxSit-i", "procedure": "In certain aspects, these polypeptides have improved stability at high temperatures as compared to LuxSit-i. For example, these polypeptides are stable at higher temperatures as compared to LuxSit-i. Stability may be measured by enzymatic activity and/or protein misfolding measured over a period of time. In certain embodiments, stability may be measured using static light scattering (SLS).\nA single saturation mutagenesis (SSM) was performed to evaluate by yeast display the effect of single mutations in the stability of LuxSit-i (SEQ ID NO:1). The SSM library was transformed into electrocompetent cells of the strain EBY100. Twenty million cells were labeled with anti-myc FITC antibody in order to detect protein expression on the yeast surface by measuring fluorescence emission. Cells were sorted using a Sony SH800 cell sorter and those showing protein expression (FITC signal) were collected and grown. DNA was extracted from the sorted cells using conventional DNA extraction conventional methods. The DNA library was sequenced using Nanopore technology. Single amino acid substitutions that increase protein stability are enriched after sorting.\n(§1) Single saturation mutagenesis (SSM) was performed to evaluate (by yeast display) the effect of single mutations in the stability of LuxSit-i-i. The SSM library was transformed into electrocompetent cells of the strain EBY100. Twenty million cells were labeled with an anti-myc FITC antibody to detect protein expression on the yeast surface by measuring the emission of fluorescence by FITC. Yeast were incubated with a mixture of 3.5 uM trypsin and 1.4 uM chymotrypsin (1/729 dilution of the stock solution) at 25° C. for 15 min. Cells were sorted using a Sony SH800 cell sorter and those showing protein expression (FITC signal) after protease incubation were collected and grown. DNA was extracted from the sorted cells using conventional DNA extraction conventional methods. The DNA library was sequenced using Nanopore technology. Single amino acid substitutions that increase protein stability are enriched after sorting.\nas §1, with “LuxSit-i.” for “LuxSit-i-i.”, “antibody in order” for “antibody”, “10” for “3.5”, “4” for “1.4”, “(1/243” for “(1/729”\nas §1, with “LuxSit-i.” for “LuxSit-i-i.”, “antibody in order” for “antibody”, “15” for “3.5”, “6” for “1.4”, “(1/162” for “(1/729”, “sorting. […]” for “sorting.”"}, "LgLux_4039": {"molecular_target": "T1, LgLux_4039", "T1 chain": "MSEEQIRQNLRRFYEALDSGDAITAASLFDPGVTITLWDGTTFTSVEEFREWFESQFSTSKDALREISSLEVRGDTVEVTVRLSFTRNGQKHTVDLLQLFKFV", "test": "cell-based or functional assay"}, "[4]": {"conditions": "Table 3, combined substitutions"}}, "data": [{"molecule": "MBIO-4039_No Lysine Residues: LuxSit-i variant that lacks lysine residues, SEQ ID NO: 2737 (protein) MSGMSEEQIRQNLRRFYEALDSGDAITAASLFDPGVTITLWDGTTFTSVEEFREWFESQFSTSRDALREISSLEVRGDTVEVTVRLSFTRNGQRHTVDLLQLFRFVGNRVVAVRVYVNPT", "values": [{"measurement": "activity of variant that lacks lysine residues", "setting": "[1]; all lysine residues substituted", "value": "retains activity"}]}, {"molecule": "MBIO-301: LuxSit-i variant F9N, Q64L, A85F, H87R, H99L, T108D, H113Y, W100F; SEQ ID NO 104 (protein) MSEEQIRQNLRRFYEALDSGDADTAASLFHPGVTIHLWDGVTFTSREEFREWFERLFSTSKDALREIKSLEVRGDTVEVHVQLHFTRNGQKHTVDLTHLFHFRGNRVDEVRVYINPTG", "values": [{"measurement": "luciferase activity", "setting": "[1]; among mutants from combinatorial library, Table 10", "value": "highest"}]}, {"molecule": "MBIO-154: LuxSit-i variant F9V_A85F_H87L, SEQ ID NO: 5 (protein) MSEEQIRQVLRRFYEALDSGDADTAASLFHPGVTIHLWDGVTFTSREEFREWFERLFSTSKDAQREIKSLEVRGDTVEVHVQLHFTLNGQKHTVDLTHHWHFRGNRVTEVRVHINPTG", "values": [{"measurement": "Brightness improvement", "setting": "[2]; [4]", "value": "Slight increase"}, {"measurement": "Stability improvement", "setting": "[3]; [4]", "value": "Slight improvement"}]}, {"molecule": "MBIO-147: LuxSit-i variant W100F_A85F_H87L, SEQ ID NO: 3 (protein) MSEEQIRQFLRRFYEALDSGDADTAASLFHPGVTIHLWDGVTFTSREEFREWFERLFSTSKDAQREIKSLEVRGDTVEVHVQLHFTLNGQKHTVDLTHHFHFRGNRVTEVRVHINPTG", "values": [{"measurement": "Brightness improvement", "setting": "[2]; [4]", "value": "Increase"}, {"measurement": "Stability improvement", "setting": "[3]; [4]", "value": "Monomeric"}]}, {"molecule": "MBIO-150: LuxSit-i variant F9S, SEQ ID NO 73 (protein) MSEEQIRQSLRRFYEALDSGDADTAASLFHPGVTIHLWDGVTFTSREEFREWFERLFSTSKDAQREIKSLEVRGDTVEVHVQLHATHNGQKHTVDLTHHWHFRGNRVTEVRVHINPTG", "values": [{"measurement": "Brightness improvement", "setting": "[2]; Table 2, single substitutions", "value": "No change"}, {"measurement": "Stability improvement", "setting": "[3]; Table 2, single substitutions", "value": "Monomeric"}]}, {"molecule": "MBIO-155: LuxSit-i variant F9V_A85F_H87L_Q64W, SEQ ID NO: 4 (protein) MSEEQIRQVLRRFYEALDSGDADTAASLFHPGVTIHLWDGVTFTSREEFREWFERLFSTSKDAWREIKSLEVRGDTVEVHVQLHFTLNGQKHTVDLTHHWHFRGNRVTEVRVHINPTG", "values": [{"measurement": "Brightness improvement", "setting": "[2]; [4]", "value": "Slight increase"}, {"measurement": "Stability improvement", "setting": "[3]; [4]", "value": "Slight improvement"}]}, {"molecule": "MBIO-148: LuxSit-i variant W100F_A85F_H87L_Q64W, SEQ ID NO: 2600 (SEQ ID NO 2 in Table 4) (protein) MSEEQIRQFLRRFYEALDSGDADTAASLFHPGVTIHLWDGVTFTSREEFREWFERLFSTSKDAWREIKSLEVRGDTVEVHVQLHFTLNGQKHTVDLTHHFHFRGNRVTEVRVHINPTG", "values": [{"measurement": "Brightness improvement", "setting": "[2]; [4]", "value": "Increase"}, {"measurement": "Stability improvement", "setting": "[3]; [4]", "value": "Monomeric"}]}, {"molecule": "MBIO-156: LuxSit-i variant H87L, SEQ ID NO 88 (protein) MSEEQIRQFLRRFYEALDSGDADTAASLFHPGVTIHLWDGVTFTSREEFREWFERLFSTSKDAQREIKSLEVRGDTVEVHVQLHATLNGQKHTVDLTHHWHFRGNRVTEVRVHINPTG", "values": [{"measurement": "Brightness improvement", "setting": "[2]; Table 2, single substitutions", "value": "Slight increase"}, {"measurement": "Stability improvement", "setting": "[3]; Table 2, single substitutions", "value": "No change"}]}, {"molecule": "MBIO-149: LuxSit-i variant A85F, SEQ ID NO 82 (protein) MSEEQIRQFLRRFYEALDSGDADTAASLFHPGVTIHLWDGVTFTSREEFREWFERLFSTSKDAQREIKSLEVRGDTVEVHVQLHFTHNGQKHTVDLTHHWHFRGNRVTEVRVHINPTG", "values": [{"measurement": "Brightness improvement", "setting": "[2]; Table 2, single substitutions", "value": "Slight increase"}, {"measurement": "Stability improvement", "setting": "[3]; Table 2, single substitutions", "value": "No change"}]}, {"molecule": "MBIO-158: LuxSit-i variant W100F (protein) MSEEQIRQFLRRFYEALDSGDADTAASLFHPGVTIHLWDGVTFTSREEFREWFERLFSTSKDAQREIKSLEVRGDTVEVHVQLHATHNGQKHTVDLTHHFHFRGNRVTEVRVHINPTG", "values": [{"measurement": "Brightness improvement", "setting": "[2]; Table 2, single substitutions", "value": "Slight increase"}, {"measurement": "Stability improvement", "setting": "[3]; Table 2, single substitutions", "value": "Monomeric"}]}, {"molecule": "MBIO-152: LuxSit-i variant F9S_A85F_H87L_Q64W, SEQ ID NO: 6 (protein) MSEEQIRQSLRRFYEALDSGDADTAASLFHPGVTIHLWDGVTFTSREEFREWFERLFSTSKDAWREIKSLEVRGDTVEVHVQLHFTLNGQKHTVDLTHHWHFRGNRVTEVRVHINPTG", "values": [{"measurement": "Brightness improvement", "setting": "[2]; [4]", "value": "Slight increase"}, {"measurement": "Stability improvement", "setting": "[3]; [4]", "value": "Slight improvement"}]}, {"molecule": "MBIO-2466: MBIO-301 variant, H30D H36T H80T H84S H92S H98Q H101R; SEQ ID NO 2703 (protein) MSEEQIRQNLRRFYEALDSGDADTAASLFDPGVTITLWDGVTFTSREEFREWFERLFSTSKDALREIKSLEVRGDTVEVTVQLSFTRNGQKSTVDLTQLFRFRGNRVDEVRVYINPTG", "values": [{"measurement": "luciferase activity, higher than MBIO-301", "setting": "[1]; relative to MBIO-301", "value": "more than 5 ×"}]}, {"molecule": "MBIO-157: LuxSit-i variant Q64W, SEQ ID NO 47 (protein) MSEEQIRQFLRRFYEALDSGDADTAASLFHPGVTIHLWDGVTFTSREEFREWFERLFSTSKDAWREIKSLEVRGDTVEVHVQLHATHNGQKHTVDLTHHWHFRGNRVTEVRVHINPTG", "values": [{"measurement": "Brightness improvement", "setting": "[2]; Table 2, single substitutions", "value": "Slight increase"}, {"measurement": "Stability improvement", "setting": "[3]; Table 2, single substitutions", "value": "No change"}]}, {"molecule": "MBIO-151: LuxSit-i variant F9S_A85F_H87L, SEQ ID NO: 7 (protein) MSEEQIRQSLRRFYEALDSGDADTAASLFHPGVTIHLWDGVTFTSREEFREWFERLFSTSKDAQREIKSLEVRGDTVEVHVQLHFTLNGQKHTVDLTHHWHFRGNRVTEVRVHINPTG", "values": [{"measurement": "Brightness improvement", "setting": "[2]; [4]", "value": "No change"}, {"measurement": "Stability improvement", "setting": "[3]; [4]", "value": "No change"}]}, {"molecule": "HVVAVRVYVNPTG", "note": "[MBIO-5344]", "values": [{"measurement": "Baseline Signal (Normalized by expression)", "setting": "LgLux_4039", "value": 23900}, {"measurement": "Fold change upon Rap addition", "setting": "LgLux_4039", "value": 2, "unit": "fold"}]}, {"molecule": "MBIO-3073: MBIO-2466 variant (Table 12), SEQ ID NO:2711 (protein) MSEEQIRQNLRRFYEALDSGDADTAASLFDPGVTITLWDGTTFTSVEEFREWFERLFSTSKDALREIKSLEVRGDTVEVTVQLSFTRNGQKHTVDLLQLFKFVGNRVVDVRVYTNPTG", "values": [{"measurement": "luciferase activity", "setting": "[1]; among variants derived from MBIO-2466, Table 12", "value": "highest"}]}, {"molecule": "RVVIVRVYVNPTG", "note": "[MBIO-5343]", "values": [{"measurement": "Baseline Signal (Normalized by expression)", "setting": "LgLux_4039", "value": 20200}, {"measurement": "Fold change upon Rap addition", "setting": "LgLux_4039", "value": 1.8, "unit": "fold"}]}]}
